Numbering of substitutions follows the chain as printed. Numbers in names are those of the source.
T1: rat VPAC2 receptor (rat, UniProt P35000 23-437)
T1 sequence (looked up): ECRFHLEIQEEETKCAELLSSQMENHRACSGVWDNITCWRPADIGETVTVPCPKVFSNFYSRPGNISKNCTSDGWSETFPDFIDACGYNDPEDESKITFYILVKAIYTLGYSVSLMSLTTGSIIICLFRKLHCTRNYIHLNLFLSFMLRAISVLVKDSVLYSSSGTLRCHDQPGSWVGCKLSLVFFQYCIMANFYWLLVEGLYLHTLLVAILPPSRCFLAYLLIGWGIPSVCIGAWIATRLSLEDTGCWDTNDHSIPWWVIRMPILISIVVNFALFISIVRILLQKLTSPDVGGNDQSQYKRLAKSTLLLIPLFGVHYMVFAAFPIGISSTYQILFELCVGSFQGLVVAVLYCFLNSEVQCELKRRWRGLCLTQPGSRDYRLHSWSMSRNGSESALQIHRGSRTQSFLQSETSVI

T2: rat VPAC1 receptor (rat, UniProt P30083 31-459)
T2 sequence (looked up): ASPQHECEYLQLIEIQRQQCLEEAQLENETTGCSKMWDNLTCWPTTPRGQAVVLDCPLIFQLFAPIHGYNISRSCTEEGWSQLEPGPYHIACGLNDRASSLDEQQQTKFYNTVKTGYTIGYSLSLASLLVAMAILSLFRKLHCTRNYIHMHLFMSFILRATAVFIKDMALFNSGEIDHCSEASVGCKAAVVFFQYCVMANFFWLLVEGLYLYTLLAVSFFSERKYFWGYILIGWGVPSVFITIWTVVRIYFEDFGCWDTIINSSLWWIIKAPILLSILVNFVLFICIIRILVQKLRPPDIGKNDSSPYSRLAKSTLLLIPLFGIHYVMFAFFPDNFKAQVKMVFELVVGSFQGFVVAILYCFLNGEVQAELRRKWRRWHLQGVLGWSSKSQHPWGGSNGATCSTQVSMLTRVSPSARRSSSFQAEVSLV

T3: human VPAC2 receptor (human, UniProt P41587 24-438)
T3 sequence (looked up): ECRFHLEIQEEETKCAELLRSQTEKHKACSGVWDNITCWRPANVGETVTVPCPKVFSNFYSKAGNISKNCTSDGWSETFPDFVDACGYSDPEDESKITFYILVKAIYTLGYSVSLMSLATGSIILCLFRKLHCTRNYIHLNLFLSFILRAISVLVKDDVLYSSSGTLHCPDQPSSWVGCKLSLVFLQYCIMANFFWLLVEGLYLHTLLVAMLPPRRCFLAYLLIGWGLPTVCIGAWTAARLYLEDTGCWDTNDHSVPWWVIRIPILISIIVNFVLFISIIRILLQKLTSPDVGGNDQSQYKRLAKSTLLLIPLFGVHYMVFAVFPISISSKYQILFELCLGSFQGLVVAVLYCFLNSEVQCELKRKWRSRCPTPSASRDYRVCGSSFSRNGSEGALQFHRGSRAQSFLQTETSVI

T4: rat PAC1 receptor (rat, UniProt P32215 20-523)
T4 sequence (looked up): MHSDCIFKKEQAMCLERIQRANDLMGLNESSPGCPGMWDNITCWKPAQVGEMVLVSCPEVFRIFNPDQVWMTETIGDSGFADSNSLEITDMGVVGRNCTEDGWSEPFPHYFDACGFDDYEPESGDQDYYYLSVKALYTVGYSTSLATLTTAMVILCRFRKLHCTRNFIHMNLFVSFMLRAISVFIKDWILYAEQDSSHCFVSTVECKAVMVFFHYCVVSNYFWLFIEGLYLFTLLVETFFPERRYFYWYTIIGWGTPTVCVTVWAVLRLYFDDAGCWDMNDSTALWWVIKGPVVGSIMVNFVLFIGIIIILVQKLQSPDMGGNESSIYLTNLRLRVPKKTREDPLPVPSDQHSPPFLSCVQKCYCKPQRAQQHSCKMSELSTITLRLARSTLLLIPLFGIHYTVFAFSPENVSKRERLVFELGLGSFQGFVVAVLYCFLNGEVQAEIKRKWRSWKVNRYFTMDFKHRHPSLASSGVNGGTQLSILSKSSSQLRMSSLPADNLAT

T5: human VPAC2 receptor (human), P41587
T5 chain: T3 sequence (looked up)

B1: P104 (peptide)
peptide: MHSDAVFTDNYTRLRKQVAAKKYLQSIKNKRYGGPSSGAPPPS
modifications: N-terminal methionine added (M-)
notes: also called VPAC2-P104
B2: P213 (peptide)
peptide: HSDAVFTDNYTRLRKQVAAKRYLQSIRNGGPSSGAPPPS
modifications: not checked
B3: P214 (peptide)
peptide: B2 peptide with K20R
modifications: not checked

Key:
rat VPAC2 receptor [1] = target: T1, rat VPAC2 receptor; test: cell-based or functional assay
rat VPAC1 receptor [2] = target: T2, rat VPAC1 receptor; test: cell-based or functional assay
rat VPAC2 receptor [3] = target: T1, rat VPAC2 receptor; test: IC50 on rat VPAC1 over IC50 on rat VPAC2
From the text: Each assay is done in duplicate and performed on two different membrane preparations.
TABLE 3 Binding data are expressed as the IC₅₀ values of tracer inhibition. A different reference compound is used as the tracer for the VPAC1 receptor and for the VPAC2 receptor. The last column represents the ratio between the IC₅₀ values on VPAC1 and VPAC2 receptor and is, thus, an index of selectivity for a receptor subtype. […] The values are given with the standard error.

human VPAC2 receptor = target: T3, human VPAC2 receptor; test: cell-based or functional assay
rat VPAC2 receptor [4] = target: T1, rat VPAC2 receptor; test: cell-based or functional assay; remark: listed apart in the source
rat VPAC1 receptor [5] = target: T2, rat VPAC1 receptor; test: cell-based or functional assay; remark: listed apart in the source
rat PAC1 receptor = target: T4, rat PAC1 receptor; test: cell-based or functional assay
[6] = target: T5, human VPAC2 receptor (human), P41587; test: cell-based or functional assay

Row | Binder | EC50 cAMP, DiscoveRx (rat VPAC2 receptor [1]) | EC50 cAMP, DiscoveRx (rat VPAC1 receptor [2]) | VPAC1/VPAC2 (ratio of IC50 values) (rat VPAC2 receptor [3]) | EC50 cAMP, Alpha Screen (human VPAC2 receptor) | VPAC1/VPAC2 (EC50 ratio) (rat VPAC2 receptor [4]) | cAMP max (rat VPAC2 receptor [4]) | cAMP max (rat VPAC1 receptor [5]) | adenylate cyclase potency ratio compared to PACAP-27 (rat PAC1 receptor) | EC50 cAMP, Alpha Screen [6]
1 | B1 | 0.51 nM | 6.75 nM | 977 | 0.27 nM | 184 | 129 | 195 | > 1000 fold | –
2 | B2 | – | – | – | – | – | – | – | – | 0.24 nM
3 | B3 | – | – | – | – | – | – | – | – | 0.16 nM
